Test results reported in patent publication US20240336661A1, “PEPTIDES DERIVED FROM RUMINOCOCCUS TORQUES” (University of Copenhagen, priority 2021, published 2024).

B1: RUCILP1: 88 amino acid FNIII domain polypeptide of RUMTOR_00181 from Ruminococcus torques (protein)
chain: APVDVKVSEVTETSAKVSWKNAADGKEAAGYNVYVDGTKVNEELIAETTYNVSSLKDGTTYSVEVTAVDAAGEESAKSEKVEFTTVKK
modifications: Ruminococcus torques
notes: 88 amino acid FNIII domain polypeptide of RUMTOR_00181 from Ruminococcus torques
B2: RUCILP2: 87 amino acid irisin-like polypeptide cleaved from the Ruminococcus torques FNDC5-like protein RUMTOR_00181; recombinant, 6-His-tagged from E. coli (protein)
chain: APVDVKVSEITETSAKASWKNAADGKEAAGYNVYVDGVKLNKELLTEASCGLTNLKAETTYFVEVTAVDAAGNESVKSEKVTFKTLK
modifications: 6-His tag; Ruminococcus torques
notes: 87 amino acid irisin-like polypeptide cleaved from the Ruminococcus torques FNDC5-like protein RUMTOR_00181; recombinant, 6-His-tagged from E. coli

How the values were obtained:
murine C2C12 myoblasts = experiment: Myotube formation and myogenesis gene expression in C2C12 myoblasts; assay type: cell-based, mouse
Experimental: FIG. 12. […] The C2C12 myotubes were treated with indicated doses of RUCILP2 overnight and myotube images were collected at magnification, ×10.
FIG. 28. […] White preadipocytes from human visceral fat (C-12732, PromoCell) were cultured until 80% confluent and switched into differentiation media (with 0.3 ml/ml of fetal calf serum (FCS), 8 ug/ml of d-biotin, 0.5ug/ml of insulin, 400 ng/ml of dexamethasone) in the presence of 15 nM of 21-AABP2. The differentiation process to mature adipocytes was completed after 14 days. Cells were harvested after 14 days of differentiation and the indicated genes were quantified by q-PCR. Inguinal fat tissues from 6-week-old wild-type C57BL/6J female mice were dissected and washed with PBS, minced and digested for 1 hour at 37° C. in PBS containing 10 mM CaCl2, 2.4 U/ml dispase II (Roche) and 10 mg/ml collagenase D (Roche). After adding warm DMEM/F12 (1:1) with 10% FCS, digested tissue was filtered through a […] cell strainer and centrifuged at 600×g for 10 minutes. Pellet was resuspended by 40 ml DMEM/F12 (1:1) with 10% FCS and filtered through a […] cell strainer followed by centrifugation at 600×g for 10 minutes. Pelleted inguinal stromal vascular cells were grown to confluence and split onto 12-well plates. The cells were induced to differentiate by treatment with […], 0.5 mM isobutyl methyl xanthine for 2 days. After that, cells were maintained in […] for 4 days with medium change every other day. The cells were treated with 15 nM of 21-AABP2 every other day during 6 days of differentiation. Cells were harvested after 6 days of differentiation and thermogenesis gene were quantified by q-PCR. C2C12 myoblasts (CRL-1772, ATCC) were cultured until 80% confluent and switched into differentiation media (with 2% horse serum). The treatment with 21-AABP2 started from the second day of differentiation. Cells were harvested after 4 days of differentiation and expression of myogenesis genes were quantified by q-PCR. Data are presented as mean+/−SEM of one representative experiment done in biological triplicates. Statistical significance was determined by unpaired two-tailed Student's t test, *, p<0.05
FIG. 29. […] Representative images of myoblasts (CRL-1772, ATCC) at 24h of differentiation in the presence of phosphate buffered saline (PBS, blank) or 21-AABP2 (15 nM). Presented images were from one representative experiment done in biological triplicates.
(§1) C2C12 cells were seeded on 12-well plates under DMEM/F-12 medium (Dulbecco's Modified Eagle Medium/Nutrient Mixture F-12, Fisher Scientific, #11524436), supplemented with 10% FBS (Fetal Bovine Serum, Fisher Scientific, #11550356) and 1% Penicillin-Streptomycin (Fisher Scientific, #11548876). Cell cultures were maintained in a humidified chamber with 5% CO2 at 37° C., and culture media were changed every 2-3 days.
At approximately 80% confluence, 10% fetal bovine serum was replaced with 2% horse serum to induce C2C12 myoblast cells to differentiate into myotubes. Twenty-four hours later (day 1 of the differentiation), the cells were treated with recombinant RUCILP2 or commercial recombinant irisin (Sigma, #SRP8039-10UG and Phoenix pharmaceuticals, #067-29A) or saline. For integrin inhibitor treatment, cells were treated with 10 μM of CycloRGDyK (Selleckchem, #S7844) for 10 minutes and washed with PBS before treated with recombinant RUCILP2 or commercial recombinant irisin or saline. At day three, the cells were refreshed with the same media as day one. After treatments for six hours on day 3, C2C12 cells were harvested for qRT-PCR analysis.
C2C12 myoblasts were cultured until 80% confluent and switched into differentiation media (with 2% horse serum). The treatment with 21-AABP2 started from the second day of differentiation. Representative images of the formed myotubes at 24h of differentiation in the presence of PBS (blank) or 21-AABP2 (15 nM) were captured. […]

H9C2 cardiomyoblasts = experiment: Gene expression in H9C2 cardiomyoblasts; assay type: cell-based; details: q-PCR
Experimental: FIG. 13. […] The cells were treated with various doses of RUCILP2, and cells were collected for q-PCR quantification on indicated genes. For integrin inhibitor treatment, cells were treated with 10 uM of cRGDyK (Selleckchem, #S7844) for 10 minutes and washed with PBS before treated with RUCILP2. Data are presented as mean+/−SEM of one representative experiment done in technical triplicate. Statistical significance was determined by unpaired two-tailed Student's t-test. *, p<0.05 vs 0 nM RUCILP2.
as §1, with “Commercially available H9C2” for “C2C12”, “cells (ATCC, #CRL-1446)” for “cells”
At 70% confluence, the cells were treated with indicated concentrations of recombinant RUCILP2, commercial recombinant irisin (Sigma, #SRP8039-10UG and Phoenix pharmaceuticals, #067-29A), and PBS for 24 h. For integrin inhibitor treatment, cells were treated with 10 μM of CycloRGDyK (Selleckchem, #S7844) for 10 minutes and washed with PBS before treated with recombinant RUCILP2, commercial recombinant irisin and PBS. […]

Molecule	myotube formation markers Sox8 and Stat3 (murine C2C12 myoblasts; C2C12 myoblasts, dose-response)	myotube formation (murine C2C12 myoblasts; C2C12, treated overnight)	expression of Heyl (murine C2C12 myoblasts; C2C12 myoblasts, dose-response)	gene expression in H9C2 cardiomyoblasts (markers of cardiomyogenesis) (H9C2 cardiomyoblasts)
B1	less dose-dependent			
B2	less dose-dependent	induces myotube formation	more clear dose-dependence response	stimulate gene expression
